Data from IntAct's records for PubMed 20051244.

B1: Octaprenyl diphosphate synthase (Escherichia coli (strain K12)), P0AD57 (parent)
chain: MNLEKINELTAQDMAGVNAAILEQLNSDVQLINQLGYYIVSGGGKRIRPMIAVLAARAVGYEGNAHVTIAALIEFIHTATLLHDDVVDESDMRRGKATANAAFGNAASVLVGDFIYTRAFQMMTSLGSLKVLEVMSEAVNVIAEGEVLQLMNVNDPDITEENYMRVIYSKTARLFEAAAQCSGILAGCTPEEEKGLQDYGRYLGTAFQLIDDLLDYNADGEQLGKNVGDDLNEGKPTLPLLHAMHHGTPEQAQMIRTAIEQGNGRHLLEPVLEAMNACGSLEWTRQRAEEEADKAIAALQVLPDTPWREALIGLAHIAVQRDR
partner: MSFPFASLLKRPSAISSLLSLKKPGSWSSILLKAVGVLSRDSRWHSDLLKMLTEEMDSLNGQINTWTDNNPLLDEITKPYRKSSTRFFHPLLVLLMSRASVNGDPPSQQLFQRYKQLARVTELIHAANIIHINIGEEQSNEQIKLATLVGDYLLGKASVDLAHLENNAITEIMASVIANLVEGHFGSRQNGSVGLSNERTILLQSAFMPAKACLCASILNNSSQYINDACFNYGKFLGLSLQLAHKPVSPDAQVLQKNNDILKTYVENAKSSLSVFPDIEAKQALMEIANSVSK
B2: Octaprenyl diphosphate synthase (Escherichia coli (strain K12)), P0AD57 (parent)
chain: B1 chain
partner: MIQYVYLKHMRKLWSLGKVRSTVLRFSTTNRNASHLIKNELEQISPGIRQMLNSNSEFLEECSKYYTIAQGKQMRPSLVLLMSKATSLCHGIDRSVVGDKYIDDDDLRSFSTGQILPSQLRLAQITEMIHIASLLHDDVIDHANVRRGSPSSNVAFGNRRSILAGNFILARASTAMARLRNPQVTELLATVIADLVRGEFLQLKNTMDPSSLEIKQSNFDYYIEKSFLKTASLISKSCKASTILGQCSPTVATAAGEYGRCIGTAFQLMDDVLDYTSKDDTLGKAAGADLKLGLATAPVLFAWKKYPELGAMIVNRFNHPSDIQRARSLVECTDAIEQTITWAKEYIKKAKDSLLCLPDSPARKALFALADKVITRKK

Variants of: B1
Settings: with dlp1_schpo dlp1, O13851

effect of a mutation on the interaction | Variant
decreasing interaction | MNLEKINELTAQDMAGVNAAILEQLNSDVQLINQLGYYIVSGGGKRIRPMIAVLAARAVGYEGNAHVTIAALIEFIHTATLLHDDVVDESDMRRGKATANAAFGNAASVLVGDFIYTRAFQMMTSLGSLKVLEVMSEAVNVIAEGEVLQLMNVNDPDITEENYMRVIYSKTARLFEAAAQCSGILAGCTPEEEKGLQDYGRYLGTAFQLIDDLLDYNADGEQLGKNVGDDLNEGKPTLPLLHAMHHGTPEQAQMIRTAIEQGNGRHLLEPVLEAMNACGSLEWTRQRAEEEADKAIAALQVLPDTPWREALIGLAHIAVQADR [R321A]

Variants of: B2
Settings: with dps1_schpo dps1, O43091

effect of a mutation on the interaction | Variant
increasing interaction | MNLEKINELTAQDMAGVNAAILEQLNSDVQLINQLGYYIVSGGGKRIRPMIAVLAARAVGYEGNAHVTIAALIEFIHTATLLHDDVVDESDMRRGKATANAAFGNAASVLVGDFIYTRAFQMMTSLGSLKVLEVMSEAVNVIAEGEVLQLMNVNDPDITEENYMRVIYSKTARLFEAAAQCSGILAGCTPEEEKGLQDYGRYLGTAFQLIDDLLDYNADGEQLGKNVGDDLNEGKPTLPLLHAMHHGTPEQAQMIRTAIEQGNGRHLLEPVLEAMNACGSLEWTRQRAEEEADKAIAALQVLPDTPWREALIGLAHIAVQADR [R321A]
